Here are results for two substances from paper PMC12401731.

Experiment [1] addresses HIV-1 RT p66 with TEV-cleavable N-terminal His tag (HTp66) (HIV-1). Briefly: mass photometry.
For experiment [2] the target is unchanged. Briefly: cross-linking + other: mass photometry.
A further experiment has as its target HTp66 K259A (HIV-1). Briefly: mass photometry.

With “HIV-1 RT p66 with TEV-cleavable N-terminal His tag (HTp66) (enzyme)”, in experiment [1], the percent dimer at 500 nM JLJ648 came out at 58%. Moreover, in experiment [2], the percent of the population as dimer worked out at 26%.

In turn, HTp66 K259A (enzyme) registered a percent dimer at 500 nM JLJ648 with HTp66 K259A (HIV-1) of 52%.
